Assay results taken from paper PMC10933417.

T1: ZNF827 ZnFΔ1-3 (Homo sapiens, UniProt Q17R98 1-373+456-1081, internal_change)
T1 sequence: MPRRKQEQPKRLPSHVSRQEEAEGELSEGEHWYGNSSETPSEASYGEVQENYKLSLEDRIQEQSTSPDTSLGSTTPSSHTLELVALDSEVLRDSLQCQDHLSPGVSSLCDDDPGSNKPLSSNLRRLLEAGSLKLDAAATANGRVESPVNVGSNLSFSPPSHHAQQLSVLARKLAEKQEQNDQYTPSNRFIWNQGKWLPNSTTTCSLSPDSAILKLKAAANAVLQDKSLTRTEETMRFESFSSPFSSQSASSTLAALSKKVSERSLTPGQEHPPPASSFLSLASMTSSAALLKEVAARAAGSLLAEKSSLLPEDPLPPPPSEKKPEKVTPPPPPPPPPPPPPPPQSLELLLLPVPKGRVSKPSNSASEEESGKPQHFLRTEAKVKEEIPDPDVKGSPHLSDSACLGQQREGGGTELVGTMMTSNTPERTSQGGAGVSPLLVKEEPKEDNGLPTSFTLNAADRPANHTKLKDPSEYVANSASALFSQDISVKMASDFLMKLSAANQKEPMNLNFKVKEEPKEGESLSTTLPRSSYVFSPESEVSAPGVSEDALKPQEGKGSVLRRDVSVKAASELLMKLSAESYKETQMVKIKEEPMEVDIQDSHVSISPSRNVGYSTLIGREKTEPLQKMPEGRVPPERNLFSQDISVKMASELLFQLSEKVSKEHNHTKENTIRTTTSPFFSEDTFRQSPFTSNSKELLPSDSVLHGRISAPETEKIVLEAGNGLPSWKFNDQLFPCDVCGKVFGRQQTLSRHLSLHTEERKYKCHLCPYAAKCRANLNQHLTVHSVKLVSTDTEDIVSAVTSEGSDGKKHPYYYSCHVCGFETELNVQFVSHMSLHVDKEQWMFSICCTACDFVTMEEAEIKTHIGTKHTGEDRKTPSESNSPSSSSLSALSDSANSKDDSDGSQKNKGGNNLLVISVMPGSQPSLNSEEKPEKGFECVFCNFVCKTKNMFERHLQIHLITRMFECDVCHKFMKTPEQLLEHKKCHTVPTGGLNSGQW

T2: ZNF827 wild-type (Homo sapiens, UniProt Q17R98 1-1081)
T2 sequence: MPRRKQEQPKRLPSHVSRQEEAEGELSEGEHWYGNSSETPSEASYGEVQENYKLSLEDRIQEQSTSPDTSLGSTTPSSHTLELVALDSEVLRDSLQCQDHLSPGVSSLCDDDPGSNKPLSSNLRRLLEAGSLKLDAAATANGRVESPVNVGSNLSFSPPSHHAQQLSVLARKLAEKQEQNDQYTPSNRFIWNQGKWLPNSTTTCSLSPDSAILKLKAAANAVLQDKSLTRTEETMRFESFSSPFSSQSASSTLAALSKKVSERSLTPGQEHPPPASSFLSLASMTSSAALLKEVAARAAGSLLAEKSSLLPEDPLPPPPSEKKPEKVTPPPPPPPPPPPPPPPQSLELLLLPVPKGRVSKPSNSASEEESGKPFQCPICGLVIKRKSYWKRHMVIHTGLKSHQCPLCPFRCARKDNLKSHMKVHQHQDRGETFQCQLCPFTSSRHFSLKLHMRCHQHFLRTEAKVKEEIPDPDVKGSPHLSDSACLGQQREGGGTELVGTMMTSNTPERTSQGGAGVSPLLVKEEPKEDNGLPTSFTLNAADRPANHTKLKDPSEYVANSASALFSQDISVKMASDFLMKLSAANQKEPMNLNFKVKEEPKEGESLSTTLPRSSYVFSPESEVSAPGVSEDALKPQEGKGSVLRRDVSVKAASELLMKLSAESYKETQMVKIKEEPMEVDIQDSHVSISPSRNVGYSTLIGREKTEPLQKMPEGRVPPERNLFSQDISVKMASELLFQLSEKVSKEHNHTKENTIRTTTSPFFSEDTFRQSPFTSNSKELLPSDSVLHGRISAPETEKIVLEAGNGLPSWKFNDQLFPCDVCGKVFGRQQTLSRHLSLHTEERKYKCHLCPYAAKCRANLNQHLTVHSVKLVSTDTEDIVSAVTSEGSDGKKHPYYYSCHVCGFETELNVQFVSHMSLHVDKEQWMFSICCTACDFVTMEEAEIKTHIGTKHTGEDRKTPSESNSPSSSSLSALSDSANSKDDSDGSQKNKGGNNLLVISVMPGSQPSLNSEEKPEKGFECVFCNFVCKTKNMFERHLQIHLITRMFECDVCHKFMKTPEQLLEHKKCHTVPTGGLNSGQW

T3: ZNF827 ZnFΔ4-9 (Homo sapiens, UniProt Q17R98 1-816+1070-1081, internal_change)
T3 sequence: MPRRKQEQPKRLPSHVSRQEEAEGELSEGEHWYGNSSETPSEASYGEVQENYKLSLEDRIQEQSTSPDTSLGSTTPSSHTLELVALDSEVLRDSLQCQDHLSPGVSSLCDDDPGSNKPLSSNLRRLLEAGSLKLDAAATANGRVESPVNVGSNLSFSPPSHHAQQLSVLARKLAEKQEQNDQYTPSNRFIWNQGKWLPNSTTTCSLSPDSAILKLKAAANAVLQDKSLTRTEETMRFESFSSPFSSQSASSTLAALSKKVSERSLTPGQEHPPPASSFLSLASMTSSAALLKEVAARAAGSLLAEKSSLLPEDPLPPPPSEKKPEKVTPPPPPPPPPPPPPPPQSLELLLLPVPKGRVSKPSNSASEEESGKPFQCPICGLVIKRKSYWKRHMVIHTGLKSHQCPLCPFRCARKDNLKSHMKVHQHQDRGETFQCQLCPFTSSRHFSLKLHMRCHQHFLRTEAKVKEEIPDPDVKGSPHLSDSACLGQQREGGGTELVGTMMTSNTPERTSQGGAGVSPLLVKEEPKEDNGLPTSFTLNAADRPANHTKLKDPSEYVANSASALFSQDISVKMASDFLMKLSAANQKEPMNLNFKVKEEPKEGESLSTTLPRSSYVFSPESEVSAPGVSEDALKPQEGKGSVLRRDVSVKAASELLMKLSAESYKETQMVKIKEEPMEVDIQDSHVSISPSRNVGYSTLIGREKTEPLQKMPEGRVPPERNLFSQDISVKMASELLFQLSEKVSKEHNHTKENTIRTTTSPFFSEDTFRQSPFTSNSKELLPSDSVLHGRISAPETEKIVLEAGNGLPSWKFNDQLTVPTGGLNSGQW

B1: ssDNA pentaprobe (ssDNA)
DNA: CGCTCTATTCTACTGTCCTGTGCATTCAATCGTTGAGTTCGATCTAGTCTCGTCTAACCCTCCCCTGCTCCGCTGGTCTGGCCTCGCCTATCCTACCCAT
B2: dsDNA pentaprobe (dsDNA)
DNA 1: B1 DNA
DNA 2: ATGGGTAGGATAGGCGAGGCCAGACCAGCGGAGCAGGGGAGGGTTAGACGAGACTAGATCGAACTCAACGATTGAATGCACAGGACAGTAGAATAGAGCG

Columns and labels:
ZNF827 ZnFΔ1-3 = molecular target: T1, ZNF827 ZnFΔ1-3; test: EMSA; 0.8 mM ZnCl2; 20 mM HEPES-KOH pH 7.9, 100 mM KCl, 0.8 mM ZnCl2, 0.2 mM EDTA, 5% glycerol, 0.5 mM DTT, 0.5 mM PMSF, 6.25 ug/mL poly(dI:dC), 50 ng/uL BSA, ~0.5 nM probe, on ice; gel at 4 °C; details: protein: recombinant, tags: HaloTag removed by TEV cleavage, label: 32P (T4 PNK end label)
ZNF827 wild-type = molecular target: T2, ZNF827 wild-type; test: as above; details: protein: recombinant, tags: HaloTag removed by TEV cleavage, label: 32P (T4 PNK end label)
RPA heterotrimer = RPA heterotrimer (UniProt P27694;P15927;P35244 1-616;1-270;1-121); test: as above; details: protein: recombinant; copies: 1;1;1; label: 32P (T4 PNK end label)
[1] = molecular target: ZNF827 wild-type;RPA heterotrimer (Homo sapiens;Homo sapiens?, UniProt Q17R98;P27694;P15927;P35244 1-1081;1-616;1-270;1-121, |); test: EMSA; 0.8 mM ZnCl2; intermediate band only with both proteins; RPA partly displaces ZNF827; 20 mM HEPES-KOH pH 7.9, 100 mM KCl, 0.8 mM ZnCl2, 0.2 mM EDTA, 5% glycerol, 0.5 mM DTT, 0.5 mM PMSF, 6.25 ug/mL poly(dI:dC), 50 ng/uL BSA, ~0.5 nM probe, on ice; gel at 4 °C; details: protein: recombinant;recombinant; tags: HaloTag removed by TEV cleavage;; copies: 1;1;1;1; label: 32P (T4 PNK end label)
ZNF827 ZnFΔ4-9 = molecular target: T3, ZNF827 ZnFΔ4-9; test: EMSA; 0.8 mM ZnCl2; 20 mM HEPES-KOH pH 7.9, 100 mM KCl, 0.8 mM ZnCl2, 0.2 mM EDTA, 5% glycerol, 0.5 mM DTT, 0.5 mM PMSF, 6.25 ug/mL poly(dI:dC), 50 ng/uL BSA, ~0.5 nM probe, on ice; gel at 4 °C; details: protein: recombinant; tags: HaloTag removed by TEV cleavage; label: 32P (T4 PNK end label); blunt

Chain of ZNF827 wild-type;RPA heterotrimer (P27694 whole entry, chain 2 of 3): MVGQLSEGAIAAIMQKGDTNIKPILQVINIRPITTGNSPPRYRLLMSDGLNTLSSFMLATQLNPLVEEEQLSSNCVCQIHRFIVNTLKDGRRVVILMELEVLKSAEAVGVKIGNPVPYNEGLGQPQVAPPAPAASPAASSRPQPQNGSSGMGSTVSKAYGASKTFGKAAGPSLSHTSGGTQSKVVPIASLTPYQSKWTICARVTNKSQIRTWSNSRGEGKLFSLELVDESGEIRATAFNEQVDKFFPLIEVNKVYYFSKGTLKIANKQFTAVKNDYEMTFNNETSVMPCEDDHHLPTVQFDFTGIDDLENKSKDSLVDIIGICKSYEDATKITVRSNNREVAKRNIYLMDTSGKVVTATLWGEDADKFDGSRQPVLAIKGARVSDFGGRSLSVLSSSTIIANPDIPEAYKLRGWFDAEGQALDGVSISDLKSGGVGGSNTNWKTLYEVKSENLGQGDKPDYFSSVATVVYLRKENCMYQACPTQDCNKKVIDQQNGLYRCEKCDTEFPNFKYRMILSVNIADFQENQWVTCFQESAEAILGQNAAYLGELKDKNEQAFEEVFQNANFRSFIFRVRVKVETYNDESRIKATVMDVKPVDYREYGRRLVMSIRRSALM
Chain of ZNF827 wild-type;RPA heterotrimer (P15927 whole entry, chain 3 of 3): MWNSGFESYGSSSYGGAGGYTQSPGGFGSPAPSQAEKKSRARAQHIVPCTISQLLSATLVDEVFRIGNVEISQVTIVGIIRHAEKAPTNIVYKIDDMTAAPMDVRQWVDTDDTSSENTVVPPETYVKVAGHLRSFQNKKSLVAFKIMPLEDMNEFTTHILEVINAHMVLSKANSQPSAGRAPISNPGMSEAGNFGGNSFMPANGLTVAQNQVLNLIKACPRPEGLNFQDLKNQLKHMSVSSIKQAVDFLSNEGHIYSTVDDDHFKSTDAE
Chain of ZNF827 wild-type;RPA heterotrimer (P35244 whole entry, chain 4 of 3): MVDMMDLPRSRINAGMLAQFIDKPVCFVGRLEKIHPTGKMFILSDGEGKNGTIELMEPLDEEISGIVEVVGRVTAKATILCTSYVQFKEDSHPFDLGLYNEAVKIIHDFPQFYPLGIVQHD
Chain of RPA heterotrimer (P27694 whole entry, chain 1 of 3): as the sequence (P27694 whole entry, chain 2 of 3) above
Chain of RPA heterotrimer (P15927 whole entry, chain 2 of 3): as the sequence (P15927 whole entry, chain 3 of 3) above
Chain of RPA heterotrimer (P35244 whole entry, chain 3 of 3): as the sequence (P35244 whole entry, chain 4 of 3) above

| Binder | binding result (ZNF827 ZnFΔ1-3) | binding result (ZNF827 wild-type) | binding result (RPA heterotrimer) | binding result [1] | binding result (ZNF827 ZnFΔ4-9) | binding result (ZNF827 ZnFΔ1-3; blunt) | binding result (ZNF827 wild-type; blunt) |
| --- | --- | --- | --- | --- | --- | --- | --- |
| B1 | no binding | binds | binds | binds | – | – | – |
| B2 | – | – | – | – | no binding | no binding | no binding |
